Laboratory results published in US9994830B2, “Methods for modulating cyclic nucleotide-mediated signaling in cardiac myocytes and compositions” (The United States of America as Represented by the …, priority 2014, dated 2018).
Residue numbers refer to the chain shown, from its start. Names and notes keep the numbering of the source. Each block holds one molecule with its values, some of them ahead of it.

Biological target: T1, rSERCA2 (Homo sapiens, UniProt P16615)
T1 construct: purchased Abnova
Test: Co-immunoprecipitation of Flag-tagged rhPDE3A variants and rSERCA2 after incubation with or without rPKAc
Format: binding
Conditions: for PKA-stimulated (phosphorylation-dependent) interaction with SERCA2: serine-to-alanine mutants of rhPDE3A1, 50 units rPKAc, co-IP
Text: FIG. 11 a-d. rPKAc phosphorylates rhPDE3A and increases its interactions rSERCA2. A. Schemes representing PDE3A1 [NHR1: trans-membrane domain (obligatory membrane insertion domain); NHR2: membrane association domain; CCR: conserved C-terminal catalytic region; P1-4: predicted PKA phosphorylation sites; rhPDE3A and truncated mutants (PDE3A2, PDE3A-A510, PDE3A-RD), and rSERCA2 (1042 amino acids, 3-77 cation transporter N-terminal; 93-341, E1-E2 ATPase; 345-724, haloacid dehydrogenase like hydrolase; 819-991, cation transporter ATPase C-terminus). B. Putative PKA phosphorylation sites of PDE3A designated with asterisks. C-D. Purified rSERCA2 (150 ng) (Abnova) and 50 units of Flag-tagged rhPDE3A1 truncated mutants [rhPDE3A2, rhPDE3A-A510, and similarly expressed rhPDE3A-RD (aa 146-484)](FIG. 11D) or mutants lacking the PKA putative phosphorylation site mutants of rhPDE3A1 [Ser292/293A (M1), S312A (M2), S428A (M3), S438A (M4), S292A/293A/312A/438A (M5)](FIG. 11C) were incubated with or without 50 units of rPKAc at 30° C. for 30 min and 5 mM MgCl2 in phosphorylation buffer. Proteins were immunoprecipitated with anti-Flag antibodies and immunoblotted with anti-SERCA2 (upper panel), or anti-Flag (middle panel). Lower panel: input control (SERCA2). Shown are representative blots from three independent experiments. (RD: regulatory domain; AA: amino acid).
Flag-tagged rhPDE3A1 and its phosphorylation site mutants [rhPDE3A1-S292A/293A (M1), rhPDE3A1-S312A (M2), rhPDE3A1-S428A (M3), rhPDE3A1-S438A (M4), rhPDE3A1-S292A/293A/312A/438A (M5) open reading frame [accession #NP_000912] was synthesized by Genscript, Inc (Piscataway, N.J.), subcloned into pAcSG2 baculoviral expression vector. Flag-tagged rhPDE3A variants and phosphorylation site mutants were expressed in SF21 cells [(10-20)×106 SF21 cells/75-cm2 flask] as described (19,20). SF21 cells were harvested, sedimented (10 min, 1000×g, 4° C.), washed twice with ice-cold PBS, resuspended, homogenized (in a Dounce homogenizer) in buffer B and sonicated […]. A comparison of the translated sequences of human AKAP18γ (AC NP_057461 and AK300587; 348 aa residues) and rat AKAP18δ (3) (AC QJP77; 352 aa residues) indicate that eight of the first twelve aa residues of human AKAP18γ and rat AKAP18δ are identical, and that the proteins are homologous (˜74% aa identity). SF21 cell extracts, which contained his-tagged-rAKAP18δ, were prepared as described above. Flag-tagged rhPDE3A1 (usually 50 arbitrary (u) units) was incubated (30 min, 30° C.) with rAKAP18δ (200 μl, containing 50 ng of recombinant protein), with or without different concentrations of rPKAc (final volume, 300 μl) in buffer B containing 2 mM DTT and 200 μM ATP. Reactions were stopped by dilution of reaction mixtures to 1.0 ml with buffer B containing 1 mg/ml SF21 cell lysates, and cleared as described above (cf ‘Immunoprecipitation and immunoblotting’ subsection). His-tagged rAKAP18δ was immunoprecipitated with anti-his Mab Mag-beads (Genscript). Anti-his Mab Mag beads-bound immunoprecipitates were washed, collected, and anti-his Mab Mag-beads-bound proteins were eluted by boiling in Laemmli's SDS buffer (100 μl) and samples (15 μl) of immunoprecipitated proteins as well as of reaction mixtures (‘input proteins’) were immunoblotted with indicated antibodies as described above.

T1 sequence (P16615 whole entry): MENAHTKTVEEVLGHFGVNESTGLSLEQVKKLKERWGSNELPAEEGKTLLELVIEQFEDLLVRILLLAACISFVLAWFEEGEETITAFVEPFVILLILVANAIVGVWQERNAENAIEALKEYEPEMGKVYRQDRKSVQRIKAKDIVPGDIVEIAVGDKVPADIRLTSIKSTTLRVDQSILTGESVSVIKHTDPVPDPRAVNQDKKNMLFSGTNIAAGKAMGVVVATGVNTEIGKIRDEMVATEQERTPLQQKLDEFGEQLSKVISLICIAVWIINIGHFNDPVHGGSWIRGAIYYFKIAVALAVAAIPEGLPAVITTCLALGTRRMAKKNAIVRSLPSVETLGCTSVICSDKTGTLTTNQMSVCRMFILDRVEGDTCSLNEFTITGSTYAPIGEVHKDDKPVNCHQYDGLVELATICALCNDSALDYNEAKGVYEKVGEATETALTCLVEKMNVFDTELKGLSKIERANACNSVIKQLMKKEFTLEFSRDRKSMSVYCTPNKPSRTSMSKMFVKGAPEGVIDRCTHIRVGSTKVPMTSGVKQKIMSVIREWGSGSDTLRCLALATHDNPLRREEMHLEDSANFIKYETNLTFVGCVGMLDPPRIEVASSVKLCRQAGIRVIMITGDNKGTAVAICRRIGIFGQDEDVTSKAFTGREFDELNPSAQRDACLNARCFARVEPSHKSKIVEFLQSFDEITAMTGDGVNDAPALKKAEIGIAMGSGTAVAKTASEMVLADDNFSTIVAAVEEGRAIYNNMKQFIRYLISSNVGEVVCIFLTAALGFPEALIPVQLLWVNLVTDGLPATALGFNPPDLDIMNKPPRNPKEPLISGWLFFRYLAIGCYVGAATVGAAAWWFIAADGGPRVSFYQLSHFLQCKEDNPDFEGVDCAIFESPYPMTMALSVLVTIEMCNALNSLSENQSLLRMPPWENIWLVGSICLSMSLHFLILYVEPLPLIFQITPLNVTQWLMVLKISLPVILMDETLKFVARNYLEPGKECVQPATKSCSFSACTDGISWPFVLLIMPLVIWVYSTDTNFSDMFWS

B1: M1: Flag-tagged rhPDE3A1 phosphorylation site mutant S292A/293A (protein, UniProt Q14432 1-1141, looked up, variant S292A S293A)
cGMP-inhibited 3',5'-cyclic …: MAVPGDAARVRDKPVHSGVSQAPTAGRDCHHRADPASPRDSGCRGCWGDLVLQPLRSSRKLSSALCAGSLSFLLALLVRLVRGEVGCDLEQCKEAAAAEEEEAAPGAEGGVFPGPRGGAPGGGARLSPWLQPSALLFSLLCAFFWMGLYLLRAGVRLPLAVALLAACCGGEALVQIGLGVGEDHLLSLPAAGVVLSCLAAATWLVLRLRLGVLMIALTSAVRTVSLISLERFKVAWRPYLAYLAGVLGILLARYVEQILPQSAEAAPREHLGSQLIAGTKEDIPVFKRRRRAASVVSAEMSGCSSKSHRRTSLPCIPREQLMGHSEWDHKRGPRGSQSSGTSITVDIAVMGEAHGLITDLLADPSLPPNVCTSLRAVSNLLSTQLTFQAIHKPRVNPVTSLSENYTCSDSEESSEKDKLAIPKRLRRSLPPGLLRRVSSTWTTTTSATGLPTLEPAPVRRDRSTSIKLQEAPSSSPDSWNNPVMMTLTKSRSFTSSYAISAANHVKAKKQSRPGALAKISPLSSPCSSPLQGTPASSLVSKISAVQFPESADTTAKQSLGSHRALTYTQSAPDLSPQILTPPVICSSCGRPYSQGNPADEPLERSGVATRTPSRTDDTAQVTSDYETNNNSDSSDIVQNEDETECLREPLRKASACSTYAPETMMFLDKPILAPEPLVMDNLDSIMEQLNTWNFPIFDLVENIGRKCGRILSQVSYRLFEDMGLFEAFKIPIREFMNYFHALEIGYRDIPYHNRIHATDVLHAVWYLTTQPIPGLSTVINDHGSTSDSDSDSGFTHGHMGYVFSKTYNVTDDKYGCLSGNIPALELMALYVAAAMHDYDHPGRTNAFLVATSAPQAVLYNDRSVLENHHAAAAWNLFMSRPEYNFLINLDHVEFKHFRFLVIEAILATDLKKHFDFVAKFNGKVNDDVGIDWTNENDRLLVCQMCIKLADINGPAKCKELHLQWTDGIVNEFYEQGDEEASLGLPISPFMDRSAPQLANLQESFISHIVGPLCNSYDSAGLMPGKWVEDSDESGDTDDPEEEEEEAPAPNEEETCENNESPKKKTFKRRKIYCQITQHLLQNHKMWKKVIEEEQRLAGIENQSLDQTPQSHSSEQIQAIKEEEEEKGKPRGEEIPTQKPDQ
modifications: Flag tag
notes: Flag-tagged rhPDE3A1 phosphorylation site mutant S292A/293A
PKA-stimulated (phosphorylation-dependent) interaction with SERCA2: markedly diminished

B2: M3: Flag-tagged rhPDE3A1 phosphorylation site mutant S428A (protein, UniProt Q14432 1-1141, looked up, variant S428A)
cGMP-inhibited 3',5'-cyclic …: B1 cGMP-inhibited 3',5'-cyclic … with A292S, A293S, S428A
modifications: Flag tag
notes: Flag-tagged rhPDE3A1 phosphorylation site mutant S428A
PKA-stimulated (phosphorylation-dependent) interaction with SERCA2: slightly decreased

B5: M2: Flag-tagged rhPDE3A1 phosphorylation site mutant S312A (protein, UniProt Q14432 1-1141, looked up, variant S312A)
cGMP-inhibited 3',5'-cyclic …: B1 cGMP-inhibited 3',5'-cyclic … with A292S, A293S, S312A
modifications: Flag tag
notes: Flag-tagged rhPDE3A1 phosphorylation site mutant S312A
PKA-stimulated (phosphorylation-dependent) interaction with SERCA2: slightly decreased

The remaining lines, values ahead:

PKA-stimulated (phosphorylation-dependent) interaction with SERCA2: markedly diminished
B3: M5: Flag-tagged rhPDE3A1 phosphorylation site mutant S292A/293A/312A/438A (protein, UniProt Q14432 1-1141, looked up, variant S292A S293A S312A S438A)
cGMP-inhibited 3',5'-cyclic …: B1 cGMP-inhibited 3',5'-cyclic … with S312A, S438A
modifications: Flag tag
notes: Flag-tagged rhPDE3A1 phosphorylation site mutant S292A/293A/312A/438A

PKA-stimulated (phosphorylation-dependent) interaction with SERCA2: had no effect
B4: M4: Flag-tagged rhPDE3A1 phosphorylation site mutant S438A (protein, UniProt Q14432 1-1141, looked up, variant S438A)
cGMP-inhibited 3',5'-cyclic …: B1 cGMP-inhibited 3',5'-cyclic … with A292S, A293S, S438A
modifications: Flag tag
notes: Flag-tagged rhPDE3A1 phosphorylation site mutant S438A

co-immunoprecipitation of rSERCA2 with construct (truncated rhPDE3A constructs): co-immunoprecipitated
B6: rPDE3A-RD: construct containing only the N-terminal portion of PDE3A1 (aa 146-484), regulatory domain (protein)
chain: MGLYLLRAGVRLPLAVALLAACCGGEALVQIGLGVGEDHLLSLPAAGVVLSCLAAATWLVLRLRLGVLMIALTSAVRTVSLISLERFKVAWRPYLAYLAGVLGILLARYVEQILPQSAEAAPREHLGSQLIAGTKEDIPVFKRRRRSSSVVSAEMSGCSSKSHRRTSLPCIPREQLMGHSEWDHKRGPRGSQSSGTSITVDIAVMGEAHGLITDLLADPSLPPNVCTSLRAVSNLLSTQLTFQAIHKPRVNPVTSLSENYTCSDSEESSEKDKLAIPKRLRRSLPPGLLRRVSSTWTTTTSATGLPTLEPAPVRRDRSTSIKLQEAPSSSPDSWNNPVM
